Experiments:
[1] = target: SARS-CoV-2 BA.2.86 S (Acro Biosystems, SPN-C524y) (SARS-CoV-2); assay: cryo-EM structure
[2] = target: SARS-CoV-2 JN.1 RBD (SARS-CoV-2) (UniProt P0DTC2); assay: BLI; […]; 10x kinetics buffer, […]; global fit, 1:1 binding model; […]

| Substance | stoichiometry N [1] | Kd [2] [nM] | koff [2] [s⁻¹] | kon [2] [M⁻¹ s⁻¹] |
| --- | --- | --- | --- | --- |
| SARS-CoV-2 BA.2.86 S (Acro Biosystems, SPN-C524y) (domain or fragment) | 3 | – | – | – |
| TRI2-2 homotrimeric miniprotein inhibitor (designed binder) | – | 6.19 | 0.00175 | 282000 |

Source: publication doi:10.1101/2024.08.08.606885
